Measurements taken from publication PMC10681739, “High-throughput data and modeling reveal insights into the mechanisms of cooperative DNA-binding by transcription factor proteins”.

T1: ETS1 (Homo sapiens, UniProt P14921)
T1 sequence: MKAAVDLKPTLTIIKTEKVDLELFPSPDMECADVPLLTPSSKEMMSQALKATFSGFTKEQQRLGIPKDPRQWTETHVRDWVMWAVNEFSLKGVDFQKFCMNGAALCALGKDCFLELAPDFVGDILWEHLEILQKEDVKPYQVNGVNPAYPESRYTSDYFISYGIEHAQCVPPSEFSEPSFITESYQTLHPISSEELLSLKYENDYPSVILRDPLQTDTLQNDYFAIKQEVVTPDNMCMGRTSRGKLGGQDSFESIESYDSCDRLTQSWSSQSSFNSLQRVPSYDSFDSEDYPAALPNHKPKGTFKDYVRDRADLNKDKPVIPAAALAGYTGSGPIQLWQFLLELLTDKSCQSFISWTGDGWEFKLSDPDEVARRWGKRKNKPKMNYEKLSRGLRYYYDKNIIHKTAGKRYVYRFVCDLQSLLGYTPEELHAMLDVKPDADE

B1: Table S2 C row 199 (dsDNA)
DNA 1: AGCTCAGGCACCAGCTGAGGTTTGGCATTTGCTGGC
DNA 2: GCCAGCAAATGCCAAACCTCAGCTGGTGCCTGAGCT
B2: Table S2 B row 3763 (dsDNA)
DNA 1: GCGCCCCGTCCTTCCGCAGCCCAAGCGCCTCTTCCC
DNA 2: GGGAAGAGGCGCTTGGGCTGCGGAAGGACGGGGCGC
B3: Table S2 B row 1479 (dsDNA)
DNA 1: CAGATTCCCGGAAAGGGGGACATGTAGCCGCCAAAG
DNA 2: CTTTGGCGGCTACATGTCCCCCTTTCCGGGAATCTG
B4: Table S2 B row 1189 (dsDNA)
DNA 1: TCCAGCGGAAGGGGGCATCTTTACGGCAGAGGCAGC
DNA 2: GCTGCCTCTGCCGTAAAGATGCCCCCTTCCGCTGGA
B5: Table S2 B row 234 (dsDNA)
DNA 1: GGGGGAATGTAGGAAGTATCATCGCCTACAAGAAAG
DNA 2: CTTTCTTGTAGGCGATGATACTTCCTACATTCCCCC
B6: Table S2 B row 1867 (dsDNA)
DNA 1: TCAGGAAGTGGTGTGACCAGCATGTGAACAGCGGCA
DNA 2: TGCCGCTGTTCACATGCTGGTCACACCACTTCCTGA
B7: Table S2 B row 713 (dsDNA)
DNA 1: CCCTTCCGCGTGGGTTGCACCTGCTAATCACAGAGC
DNA 2: GCTCTGTGATTAGCAGGTGCAACCCACGCGGAAGGG
B8: Table S2 B row 3244 (dsDNA)
DNA 1: CCCGCTGTCACTTCCTGCTTCCCTCCCGCGCACGTG
DNA 2: CACGTGCGCGGGAGGGAAGCAGGAAGTGACAGCGGG
B9: Table S2 B row 1508 (dsDNA)
DNA 1: GCTCCCTTCCTGAGCCTCTGCTGGCCTCACCAGAGG
DNA 2: CCTCTGGTGAGGCCAGCAGAGGCTCAGGAAGGGAGC
B10: Table S2 B row 2231 (dsDNA)
DNA 1: GCGCCCTCCAGGAAACGCCGCGATTTACTGTCTGCC
DNA 2: GGCAGACAGTAAATCGCGGCGTTTCCTGGAGGGCGC
B11: Table S2 B row 1194 (dsDNA)
DNA 1: TGAGTTTTGTTTCCGATTCACCTCAGAAGATACTTT
DNA 2: AAAGTATCTTCTGAGGTGAATCGGAAACAAAACTCA
B12: Table S2 B row 3799 (dsDNA)
DNA 1: GCAAAGATACATCCTTCTCCCCAGAGACTAAGTTTC
DNA 2: GAAACTTAGTCTCTGGGGAGAAGGATGTATCTTTGC
B13: Table S2 B row 2446 (dsDNA)
DNA 1: GGAACGGAGGCGGAAGGGGCCCTTCGGCGACGACGT
DNA 2: ACGTCGTCGCCGAAGGGCCCCTTCCGCCTCCGTTCC
B14: Table S2 C row 184 (dsDNA)
DNA 1: CCAGCTAAGCGAGGGGCCGCAGGGAGCGCGGCCTCG
DNA 2: CGAGGCCGCGCTCCCTGCGGCCCCTCGCTTAGCTGG
B15: Table S2 C row 16 (dsDNA)
DNA 1: AAAAGCCCATGGGCACCCACAGCTTTGTCACAGTGC
DNA 2: GCACTGTGACAAAGCTGTGGGTGCCCATGGGCTTTT
B16: Table S2 B row 3605 (dsDNA)
DNA 1: GGGCTTCCCGGGTACAAAAATGGCTGTCGCTAGCGA
DNA 2: TCGCTAGCGACAGCCATTTTTGTACCCGGGAAGCCC
B17: Table S2 B row 3719 (dsDNA)
DNA 1: GACCTGGGCAGGAAGAGCGGCATTTGGGGCCCCCTG
DNA 2: CAGGGGGCCCCAAATGCCGCTCTTCCTGCCCAGGTC
B18: Table S2 B row 2956 (dsDNA)
DNA 1: CTCTGAAGGAAGTGATGTTAGACGGCTGTAGGTGGT
DNA 2: ACCACCTACAGCCGTCTAACATCACTTCCTTCAGAG
B19: Table S2 B row 3871 (dsDNA)
DNA 1: CCTGAGAGATCCGGCGCGCGTCTTCCACCAAAATGC
DNA 2: GCATTTTGGTGGAAGACGCGCGCCGGATCTCTCAGG
B20: Table S2 B row 2334 (dsDNA)
DNA 1: CCCCTCGCCCTTCCGCATTGCGTGTTACTTCGGTTG
DNA 2: CAACCGAAGTAACACGCAATGCGGAAGGGCGAGGGG
B21: Table S2 B row 1447 (dsDNA)
DNA 1: GCAGAAGGAAGTGTGGCTTGGCGCCGTGGCTCACAC
DNA 2: GTGTGAGCCACGGCGCCAAGCCACACTTCCTTCTGC
B22: Table S2 B row 3245 (dsDNA)
DNA 1: GCGCCCGGAAGGAAGGCTGGGGTAGGTTGTAGTTTC
DNA 2: GAAACTACAACCTACCCCAGCCTTCCTTCCGGGCGC
B23: Table S2 B row 40 (dsDNA)
DNA 1: TTGCGTCATTTCCGAGAGACTTTCGCGCCGCTGTTT
DNA 2: AAACAGCGGCGCGAAAGTCTCTCGGAAATGACGCAA
B24: Table S2 B row 2750 (dsDNA)
DNA 1: CTAGTCTGTTTCCTCATCTGCCGCCTGCACGCCCGC
DNA 2: GCGGGCGTGCAGGCGGCAGATGAGGAAACAGACTAG
B25: Table S2 B row 1617 (dsDNA)
DNA 1: ACCACCCCCAGAGACAAACTCACATCCTCTCCCTAG
DNA 2: CTAGGGAGAGGATGTGAGTTTGTCTCTGGGGGTGGT
B26: Table S2 C row 51 (dsDNA)
DNA 1: CTTGGGAGTCCCTGCCGCGGTGACTCCCTGGGAGCT
DNA 2: AGCTCCCAGGGAGTCACCGCGGCAGGGACTCCCAAG
B27: Table S2 B row 1799 (dsDNA)
DNA 1: AGCGGCCGAAGGAAGTGACGTTTGGGGCAGTAAGGC
DNA 2: GCCTTACTGCCCCAAACGTCACTTCCTTCGGCCGCT
B28: Table S2 B row 1858 (dsDNA)
DNA 1: TGGCTTCCTGTCTGTCCTTCATCAGCCCAGAGAGGC
DNA 2: GCCTCTCTGGGCTGATGAAGGACAGACAGGAAGCCA
B29: Table S2 B row 935 (dsDNA)
DNA 1: CAGTGGCAGTAGCCGTTTGGCCCTTCCTGCCCTGGG
DNA 2: CCCAGGGCAGGAAGGGCCAAACGGCTACTGCCACTG
B30: Table S2 B row 1424 (dsDNA)
DNA 1: TGCTTGTCCGGTGGCTGCTGCGCTGCCGAAACGAAT
DNA 2: ATTCGTTTCGGCAGCGCAGCAGCCACCGGACAAGCA
B31: Table S2 B row 4028 (dsDNA)
DNA 1: GCCTGAAGGACTTCCGGGAACCGAAAAGCACGGTGT
DNA 2: ACACCGTGCTTTTCGGTTCCCGGAAGTCCTTCAGGC
B32: Table S2 B row 1484 (dsDNA)
DNA 1: CCCGGAAACTCAACTGCCCACTGCAGCGCCCGCCAT
DNA 2: ATGGCGGGCGCTGCAGTGGGCAGTTGAGTTTCCGGG
B33: Table S2 B row 3361 (dsDNA)
DNA 1: GAACTACGTTTCCCGGCATGCACTGCAGGCCGCCGG
DNA 2: CCGGCGGCCTGCAGTGCATGCCGGGAAACGTAGTTC
B34: Table S2 C row 98 (dsDNA)
DNA 1: AAAACCATCTTTAGGACCGCGGCCCCTTTAAGCGGC
DNA 2: GCCGCTTAAAGGGGCCGCGGTCCTAAAGATGGTTTT
B35: Table S2 B row 2753 (dsDNA)
DNA 1: AGTTGCTTCCTAATCCTGCTGAGCCATTAGCCCCAA
DNA 2: TTGGGGCTAATGGCTCAGCAGGATTAGGAAGCAACT
B36: Table S2 B row 4047 (dsDNA)
DNA 1: CCGCTCTTCCTGGAGGTCTCTTGGCCGCTCACCCTC
DNA 2: GAGGGTGAGCGGCCAAGAGACCTCCAGGAAGAGCGG
B37: Table S2 B row 2389 (dsDNA)
DNA 1: TCTGCACATCCGAGAAGCCTCCGTGCTTTGCTGCCA
DNA 2: TGGCAGCAAAGCACGGAGGCTTCTCGGATGTGCAGA
B38: Table S2 B row 2289 (dsDNA)
DNA 1: GAGGAAAGGAAGTCAAGGCCAGGGCCGAAGAGGCCA
DNA 2: TGGCCTCTTCGGCCCTGGCCTTGACTTCCTTTCCTC
B39: Table S2 B row 2233 (dsDNA)
DNA 1: GCGCCATTTCCGCTGCGCAAGGCACCTCAGGCCCTG
DNA 2: CAGGGCCTGAGGTGCCTTGCGCAGCGGAAATGGCGC
B40: Table S2 B row 1455 (dsDNA)
DNA 1: AGTGAGCTTCCTCCTGAGGCCTGAGGCAACCCCAGG
DNA 2: CCTGGGGTTGCCTCAGGCCTCAGGAGGAAGCTCACT
B41: Table S2 B row 3926 (dsDNA)
DNA 1: GCTGTCCGTTTCCGAGATGTTAATGCGAGGTCTTGC
DNA 2: GCAAGACCTCGCATTAACATCTCGGAAACGGACAGC
B42: Table S2 B row 411 (dsDNA)
DNA 1: CGCCCTCCGGAAGAGAGGGCGGACAGCGCCCGCGCC
DNA 2: GGCGCGGGCGCTGTCCGCCCTCTCTTCCGGAGGGCG

Biological target: T1, ETS1
Assay: gcPBM; 1 nM ETS1
Conditions: tags: N-terminal GST (pDEST15), kept (PMC6008103); label: surface-attached array probe

Binder | binding signal
B1 | 296 PBM fluorescence, median of replicate spots
B2 | 1510 PBM fluorescence, median of replicate spots
B3 | 1360 PBM fluorescence, median of replicate spots
B4 | 1600 PBM fluorescence, median of replicate spots
B5 | 948 PBM fluorescence, median of replicate spots
B6 | 936 PBM fluorescence, median of replicate spots
B7 | 1660 PBM fluorescence, median of replicate spots
B8 | 19700 PBM fluorescence, median of replicate spots
B9 | 849 PBM fluorescence, median of replicate spots
B10 | 1190 PBM fluorescence, median of replicate spots
B11 | 1570 PBM fluorescence, median of replicate spots
B12 | 1150 PBM fluorescence, median of replicate spots
B13 | 869 PBM fluorescence, median of replicate spots
B14 | 274 PBM fluorescence, median of replicate spots
B15 | 288 PBM fluorescence, median of replicate spots
B16 | 1230 PBM fluorescence, median of replicate spots
B17 | 1120 PBM fluorescence, median of replicate spots
B18 | 910 PBM fluorescence, median of replicate spots
B19 | 1260 PBM fluorescence, median of replicate spots
B20 | 1460 PBM fluorescence, median of replicate spots
B21 | 817 PBM fluorescence, median of replicate spots

Binder | binding signal
B22 | 1030 PBM fluorescence, median of replicate spots
B23 | 1300 PBM fluorescence, median of replicate spots
B24 | 985 PBM fluorescence, median of replicate spots
B25 | 1010 PBM fluorescence, median of replicate spots
B26 | 261 PBM fluorescence, median of replicate spots
B27 | 1090 PBM fluorescence, median of replicate spots
B28 | 20600 PBM fluorescence, median of replicate spots
B29 | 882 PBM fluorescence, median of replicate spots
B30 | 1420 PBM fluorescence, median of replicate spots
B31 | 19300 PBM fluorescence, median of replicate spots
B32 | 830 PBM fluorescence, median of replicate spots
B33 | 787 PBM fluorescence, median of replicate spots
B34 | 284 PBM fluorescence, median of replicate spots
B35 | 1170 PBM fluorescence, median of replicate spots
B36 | 1540 PBM fluorescence, median of replicate spots
B37 | 803 PBM fluorescence, median of replicate spots
B38 | 1410 PBM fluorescence, median of replicate spots
B39 | 18700 PBM fluorescence, median of replicate spots
B40 | 1620 PBM fluorescence, median of replicate spots
B41 | 1060 PBM fluorescence, median of replicate spots
B42 | 1330 PBM fluorescence, median of replicate spots
